From patent US20130202594A1, “ALK1 Antagonists and Their Uses in Treating Renal Cell Carcinoma” (priority 2012, published 2013)
“Also recorded” adds a separate entry of the source.

Tests used:
[1] = system: angiogenesis in chick chorioallantoic membrane; experiment: CAM (chick chorioallantoic membrane) angiogenesis assay; format: in vivo
Text: In preferred embodiments, an ALK1 ECD polypeptide binds to one or more of GDF5, GDF6, GDF7, BMP9 and BMP10. […] Binding may be assessed using purified proteins in solution or in a surface plasmon resonance system, such as a Biacore™ system. […] Bioassays for angiogenesis inhibitory activity include the chick chorioallantoic membrane (CAM) assay, the mouse corneal micropocket assay, or an assay known in the art for measuring the effect of administering isolated or synthesized proteins on implanted tumors. The CAM assay is described by O'Reilly, et al., in “Angiogenic Regulation of Metastatic Growth” Cell, 1994; 79 (2):315-328. Briefly, 3 day old chicken embryos with intact yolks are separated from the egg and placed in a petri dish. After 3 days of incubation, a methylcellulose disc containing the protein to be tested is applied to the CAM of individual embryos. After 48 hours of incubation, the embryos and CAMs are observed to determine whether endothelial growth has been inhibited. The mouse corneal micropocket assay involves implanting a growth factor-containing pellet, along with another pellet containing the suspected endothelial growth inhibitor, in the cornea of a mouse and observing the pattern of capillaries that are elaborated in the cornea. Other assays are described in the Examples.
VEGF and FGF are well-known to stimulate angiogenesis. A CAM (chick chorioallantoic membrane) assay system was used to assess the angiogenic effects of GDF7.
ALK1-Fc fusions were tested for anti-angiogenic activity in the CAM assay.
ALK1-Fc proteins and a commercially available, anti-angiogenic anti-VEGF monoclonal antibody were compared in the CAM assay. The ALK1-Fc proteins had similar potency as compared to anti-VEGF. The anti-VEGF antibody bevacizumab is currently used in the treatment of cancer and macular degeneration in humans.

[2] = system: collagen-induced arthritis; experiment: Murine collagen-induced arthritis (CIA) model of rheumatoid arthritis; format: in vivo, mouse; conditions: bevacizumab treated mice; day 42
Protocol: RAP-041 is mALK1-Fc. Avastin™ is the anti-VEGF antibody bevacizumab.
The murine collagen-induced arthritis model is a well-accepted model of rheumatoid arthritis. […] Nonetheless, a dose-related trend is apparent.
By study termination at day 42 the incidence of arthritis had reached 10/10 in the vehicle control treated mice, 9/10 in the bevacizumab treated mice, 8/10 in the mALK1-Fc at 1 mg/kg treated group and 9/10 in the mALK1-Fc 10 mg/kg treated group. In the mALK1-Fc 25 mg/kg treated group disease incidence was lower at 6/10.

[3] = system: advanced RCC; conditions: cited from earlier work
[4] = system: angiogenesis in chick chorioallantoic membrane; experiment: CAM assay of BMP9 and anti-BMP9 with or without VEGF; format: in vivo; conditions: for effect on angiogenesis in the presence of VEGF: VEGF-mediated angiogenesis
Text: A CAM (chick chorioallantoic membrane) assay system was used to assess the angiogenic effects of recombinant human BMP9 (rhB9) and anti-BMP9 monoclonal antibody (mabB9) (R&D Systems, Minneapolis, Minn., Cat. No. MAB3209). This antibody is known to neutralize BMP9/ALK1 signaling. See, e.g., Scharpfenecker et al., J Cell Sci. 2007 Mar. 15; 120(Pt 6):964-72; David et al., (2007); Blood March 1; 109(5):1953-61; David et al., Circ. Res. 2008 Apr. 25; 102(8):914-22.
In the absence of VEGF, both proteins were used at the 50 ng dosed 1×/day on days 1 and 3 in the 5-day cycle. […] However, the effects of the anti-BMP9 antibody are in remarkable contrast to the published literature.

For PDGF, the “angiogenic effect (stimulation of angiogenesis)” value (shortened to “angiogenic effect”) [1] was “relatively poor capability to induce angiogenesis”.

For bevacizumab, the incidence of arthritis [2] was 9/10.

In the case of `CCN(CC)CCNC(=O)c1c(C)[nH]c(/C=C2\C(=O)Nc3ccc(F)cc32)c1C` [sunitinib], the “patients requiring dose reductions” value ([3]; RCC patients, to manage toxicities) is given as 50%.

In the case of interferon-alpha, the overall survival ([3]; patients with advanced disease) is given as 21.8 months.

B1: rhB9: recombinant human BMP9 (protein)
chain: SAGAGSHCQKTSLRVNFEDIGWDSWIIAPKEYEAYECKGGCFFPLADDVTPTKHAIVQTLVHLKFPTKVGKACCVPTKLSPISVLYKDDMGVPTLKYHYEGMSVAECGCR
For B1, the “angiogenic effect” value [1] was “relatively poor capability to induce angiogenesis”, the “effect on angiogenesis in the absence of exogenous VEGF” value ([4]; 50 ng 1×/day on days 1 and 3) was “Neither BMP9 nor anti-BMP9 had a substantial effect on angiogenesis” and the “effect on angiogenesis in the presence of VEGF” value [4] was “inhibit VEGF-mediated angiogenesis”. The “effect on angiogenesis in the presence of VEGF” value ([4]; listed as BMP9) was “substantial anti-angiogenic effect”.

B2: GDF7: growth differentiation factor, ALK1 ligand tested in CAM assay (protein)
chain: TALAGTRTAQGSGGGAGRGHGRRGRSRCSRKPLHVDFKELGWDDWIIAPLDYEAYHCEGLCDFPLRSHLEPTNHAIIQTLLNSMAPDAAPASCCVPARLSPISILYIDAANNVVYKQYEDMVVEACGCR
For B2, the “angiogenic effect” value [1] was “stimulates angiogenesis with a potency that is similar to that of VEGF; also recorded: comparable to that of VEGF”.
